The target in this experiment is JR-CSF gp120 N276A (HIV-1) (UniProt P20871). Nature of the experiment: cell-based or functional assay.

This is an account of results in US9382311.

VRC01 (antibody) displayed an increase in neutralization potency of 4 fold.
